The values below come from patent US20250340662A1 (AKIRAM THERAPEUTICS, published 2025).

One assay deals with T1, Human CD44 iso6-Fc (human, UniProt P16070-6 21-606, limits assumed, chemically biotinylated in the form called Bio-CD44).
T1 construct: Negative control antigen, ProMab, HKB11 cells; also called Bio-CD44; bio-CD44
The assay can be described thus: SPR SCK, antibody immobilised, CD44-Fc injected. As for the experimental part:
(§1) The SPR measurements were performed on a BIAcore T200 instrument (Cytiva) using a SCK approach. Each antibody was directly immobilized onto a separate surface of a CM5 series S sensor chip using EDC/NHS amine coupling chemistry according to manufacturer's recommendations. Immobilization levels were set to 1500 RU. All experiments were performed at 25° C. in running buffer (HBS, 0.05% Tween20, pH 7.5). A three-fold dilution series of CD44v6 and negative control CD44, comprised of five concentrations ranging between 10-0.12 nM, were prepared in running buffer. A four-fold dilution series of human, cynomolgus and rabbit v6-peptide, respectively, comprised of five concentrations ranging between 100-0.39 nM, were also prepared in running buffer. Each dilution series were sequentially injected, starting with the lowest concentration first, over an immobilized antibody clone and chip surfaces were regenerated with 10 mM glycin-HCl, pH 2.1. See table 10 for specifications of antigens used in SPR measurements. By subtracting the response curve of a reference surface (an activated and deactivated chip surface) and to a blank run (running buffer injected instead of antigen) response curve sensorgrams were obtained. Data was analyzed using the Biacore T200 Evaluation 3.1 software and a 1:1 Langmuir binding model.

A further assay concerns the target T2, Human v6-peptide (human, N-terminal biotin).
T2 construct: Bachem #4108947, 43 amino acids, synthetic; also called Hm v6-peptide; hm v6-peptide
T2 peptide: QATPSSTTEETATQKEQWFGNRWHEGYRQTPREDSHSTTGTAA
In words: SPR SCK, antibody immobilised, peptide injected. As for the experimental part: as §1

The next assay addresses T3, Cynomolgus v6-peptide (cynomolgus, UniProt A0A2K5VJE0 387-429, N-terminal biotin).
T3 construct: domain: v6-region (43 amino acids); also called Cm v6-peptide; cm v6-peptide
T3 peptide: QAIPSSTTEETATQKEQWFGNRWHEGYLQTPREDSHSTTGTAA
The assay can be described thus: SPR SCK, antibody immobilised, peptide injected. The protocol: as §1

The next assay addresses T4, Rabbit v6-peptide (rabbit).
T4 construct: domain: v6-region (43 amino acids); also called Rb v6-peptide; rb v6-peptide
The assay can be described thus: SPR SCK, antibody immobilised, peptide injected. The protocol: as §1

In assay [1] the target is T5, Human CD44v6 iso4-Fc (human, UniProt P16070-4 21-606, limits assumed, chemically biotinylated in the form called Bio-CD44v6).
T5 construct: Custom ordered from ProMab, produced in HKB11 cells; The biotinylated and the plain form are kept as one molecule; also called Bio-CD44v6; bio-CD44v6
T5 sequence (P16070 other isoform, or with tags, fused parts or gaps limits assumed): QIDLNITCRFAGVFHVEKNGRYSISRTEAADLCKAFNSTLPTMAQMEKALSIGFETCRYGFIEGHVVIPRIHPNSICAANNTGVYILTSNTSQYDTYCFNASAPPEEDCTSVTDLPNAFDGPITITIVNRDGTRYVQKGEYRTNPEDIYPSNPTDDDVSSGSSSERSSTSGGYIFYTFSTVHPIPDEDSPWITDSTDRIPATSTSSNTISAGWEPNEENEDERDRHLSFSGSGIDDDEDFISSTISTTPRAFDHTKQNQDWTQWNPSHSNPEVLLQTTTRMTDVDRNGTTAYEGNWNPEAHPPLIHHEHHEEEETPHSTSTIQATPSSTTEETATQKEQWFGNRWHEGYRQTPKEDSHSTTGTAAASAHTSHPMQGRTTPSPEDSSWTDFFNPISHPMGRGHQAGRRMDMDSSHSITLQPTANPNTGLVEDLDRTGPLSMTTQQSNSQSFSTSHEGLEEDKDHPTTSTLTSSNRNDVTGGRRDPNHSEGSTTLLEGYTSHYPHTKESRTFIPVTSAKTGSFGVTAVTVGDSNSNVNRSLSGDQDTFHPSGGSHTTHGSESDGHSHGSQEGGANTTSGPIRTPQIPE
The assay can be described thus: SPR SCK, antibody immobilised, CD44v6-Fc injected. The protocol:
as §1

The target in assay [2] is T5, Human CD44v6 iso4-Fc. The assay can be described thus: SPR SCK, antibody immobilised, CD44v6-Fc injected; apparent KD. The protocol: as §1

T1 sequence (P16070 other isoform, or with tags, fused parts or gaps limits assumed): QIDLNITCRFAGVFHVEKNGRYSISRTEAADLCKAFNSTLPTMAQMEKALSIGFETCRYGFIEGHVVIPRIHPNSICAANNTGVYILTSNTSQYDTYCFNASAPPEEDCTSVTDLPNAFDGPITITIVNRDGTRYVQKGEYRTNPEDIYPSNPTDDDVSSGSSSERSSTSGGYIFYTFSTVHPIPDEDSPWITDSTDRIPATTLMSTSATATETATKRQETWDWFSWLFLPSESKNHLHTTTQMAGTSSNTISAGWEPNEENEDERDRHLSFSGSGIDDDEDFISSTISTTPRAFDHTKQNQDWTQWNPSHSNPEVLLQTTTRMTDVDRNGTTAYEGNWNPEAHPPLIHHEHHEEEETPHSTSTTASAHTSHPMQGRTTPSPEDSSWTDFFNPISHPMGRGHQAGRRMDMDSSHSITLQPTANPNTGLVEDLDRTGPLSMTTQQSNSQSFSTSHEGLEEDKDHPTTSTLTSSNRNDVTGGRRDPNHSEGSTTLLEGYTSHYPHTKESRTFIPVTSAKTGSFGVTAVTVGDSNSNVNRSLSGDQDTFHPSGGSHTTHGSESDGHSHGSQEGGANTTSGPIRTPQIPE

B1: AL-MN114-132 IgG1 LALA (antibody, V domains shown)
VH: EVQLLESGGGLVQPGGSLRLSCAASGFTFSSYAMSWVRQAPGKGLEWVSAISGGGSSTYYADSVKGRFTISRDNSKNTLYLQMNSLRAEDTAVYYCARHYYSDSDYRSSAAMDYWGQGTLVTVSS
VL: DIQMTQSPSSLSASVGDRVTITCRASQSISSYLNWYQQKPGKAPKLLIYAASSLQSGVPSRFSGSGSGTDFTLTISSLQPEDFATYYCQQDLYLLTFGQGTKLEIK
notes: item 20 iii) gives heavy 77 / light 96 without naming the format
Usually koff stands for the first-order rate constant of dissociation. A high value points to fast dissociation. Broadly, the kon is the rate constant with which the complex forms. High values mean faster complex formation, low ones slower complex formation. Consider B1, for which the binding result with Human CD44 iso6-Fc was “no binding (tested: 10 nM highest CD44 concentration)”. Further, the Kd with Human v6-peptide stood at 12 nM; with Cynomolgus v6-peptide, 7.3 nM; with Rabbit v6-peptide, 13 nM; with Human CD44v6 iso4-Fc [2] it was 0.062 nM. Moreover, the koff turned out to be 0.013 s⁻¹ with Human v6-peptide, 0.0096 s⁻¹ with Cynomolgus v6-peptide, 0.023 s⁻¹ with Rabbit v6-peptide and 0.00012 s⁻¹ in the assay with Human CD44v6 iso4-Fc [1]. The kon with Human v6-peptide was determined as 1.1e+06 M⁻¹ s⁻¹; in the assay with Cynomolgus v6-peptide it was 1.3e+06 M⁻¹ s⁻¹; with Rabbit v6-peptide, 1.7e+06 M⁻¹ s⁻¹; with Human CD44v6 iso4-Fc [1] it was 1.9e+06 M⁻¹ s⁻¹.

B2: AL-MN114-132 IgG1 LALA IAHA (antibody, V domains shown)
VH: EVQLLESGGGLVQPGGSLRLSCAASGFTFSSYAMSWVRQAPGKGLEWVSAISGGGSSTYYADSVKGRFTISRDNSKNTLYLQMNSLRAEDTAVYYCARHYYSDSDYRSSAAMDYWGQGTLVTVSS
VL: DIQMTQSPSSLSASVGDRVTITCRASQSISSYLNWYQQKPGKAPKLLIYAASSLQSGVPSRFSGSGSGTDFTLTISSLQPEDFATYYCQQDLYLLTFGQGTKLEIK
notes: Human IgG1 LALA IAHA, kappa
Take B2: the binding result with Human CD44 iso6-Fc is listed as “no binding (tested: 10 nM highest CD44 concentration)”. The Kd was determined as 22 nM with Human v6-peptide, 17 nM with Cynomolgus v6-peptide, 37 nM in the assay with Rabbit v6-peptide and 1.5 nM with Human CD44v6 iso4-Fc [2]. Besides, the koff with Human v6-peptide turned out to be 0.016 s⁻¹; with Cynomolgus v6-peptide, 0.014 s⁻¹; with Rabbit v6-peptide, 0.037 s⁻¹; in the assay with Human CD44v6 iso4-Fc [1] it was 0.00021 s⁻¹. Besides, the kon with Human v6-peptide is 730000 M⁻¹ s⁻¹; with Cynomolgus v6-peptide, 860000 M⁻¹ s⁻¹; with Rabbit v6-peptide it was 990000 M⁻¹ s⁻¹; with Human CD44v6 iso4-Fc [1] it was 140000 M⁻¹ s⁻¹.

B3: U-MN114-19 IgG1 LALA IAHA (antibody, V domains shown)
VH: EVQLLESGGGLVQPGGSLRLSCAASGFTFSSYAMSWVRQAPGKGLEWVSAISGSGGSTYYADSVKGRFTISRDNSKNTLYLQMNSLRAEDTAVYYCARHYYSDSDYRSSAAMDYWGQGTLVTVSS
VL: DIQMTQSPSSLSASVGDRVTITCRASQSISSYLNWYQQKPGKAPKLLIYAASSLQSGVPSRFSGSGSGTDFTLTISSLQPEDFATYYCQQDLYLLTFGQGTKLEIK
notes: also called parental clone U-MN114-19
For B3, the binding result in the assay with Human CD44 iso6-Fc is on record as “no binding (tested: 10 nM highest CD44 concentration)”. Besides, the Kd came to 17 nM with Human v6-peptide, 20 nM with Cynomolgus v6-peptide, 31 nM in the assay with Rabbit v6-peptide and 0.05 nM in the assay with Human CD44v6 iso4-Fc [2]. Moreover, the koff with Human v6-peptide amounted to 0.019 s⁻¹; with Cynomolgus v6-peptide, 0.034 s⁻¹; with Rabbit v6-peptide, 0.067 s⁻¹; with Human CD44v6 iso4-Fc [1], 0.00012 s⁻¹. Moreover, the kon with Human v6-peptide came to 1.1e+06 M⁻¹ s⁻¹; with Cynomolgus v6-peptide, 1.7e+06 M⁻¹ s⁻¹; with Rabbit v6-peptide, 2.2e+06 M⁻¹ s⁻¹; with Human CD44v6 iso4-Fc [1], 2.5e+06 M⁻¹ s⁻¹.

B4: AL-MN114-444 IgG1 LALA IAHA (antibody, V domains shown)
VH: EVQLLESGGGLVQPGGSLRLSCAASGFTFRSFAMSWVRQAPGKGLEWVSAISGGGSSTFYADSVKGRFTISRDNSKNTLYLQMNSLRAEDTAVYYCARHYYSDSDYRSSAAMDYWGQGTLVTVSS
VL: DIQMTQSPSSLSASVGDRVTITCRASQSIGSYLNWYQQKPGKAPKLLIYSASSLQSGVPSRFSGSGSGTDFTLTISSLQPEDFATYYCQQDLYLLTFGQGTKLEIK
notes: Human IgG1 LALA IAHA, kappa
Turning to B4, the binding result with Human CD44 iso6-Fc is reported as “no binding (tested: 10 nM highest CD44 concentration)”. The Kd with Human v6-peptide is 12 nM; with Cynomolgus v6-peptide it was 11 nM; with Rabbit v6-peptide it was 15 nM; with Human CD44v6 iso4-Fc [2], 1 nM. For the same molecule, the koff with Human v6-peptide worked out at 0.0083 s⁻¹; with Cynomolgus v6-peptide it was 0.0079 s⁻¹; with Rabbit v6-peptide, 0.012 s⁻¹; with Human CD44v6 iso4-Fc [1] it was 0.00032 s⁻¹. In addition, the kon in the assay with Human v6-peptide was 710000 M⁻¹ s⁻¹; in the assay with Cynomolgus v6-peptide it was 720000 M⁻¹ s⁻¹; with Rabbit v6-peptide, 820000 M⁻¹ s⁻¹; with Human CD44v6 iso4-Fc [1] it was 320000 M⁻¹ s⁻¹.

B5: AL-MN114-465 IgG1 LALA IAHA (antibody, V domains shown)
VH: EVQLLESGGGLVQPGGSLRLSCAASGFSFGSYAMSWVRQAPGKGLEWVSAISAGGSSTFYADSVKGRFTISRDNSKNTLYLQMNSLRAEDTAVYYCARHYYSDSDYRSSAAMDYWGQGTLVTVSS
VL: DIQMTQSPSSLSASVGDRVTITCRASQSISSYLNWYQQKPGKAPKLLIYTASSLQSGVPSRFSGSGSGTDFTLTISSLQPEDFATYYCQQDLYLLTFGQGTKLEIK
notes: Human IgG1 LALA IAHA, kappa
Turning to B5, the binding result with Human CD44 iso6-Fc was “no binding (tested: 10 nM highest CD44 concentration)”. Besides, the Kd in the assay with Human v6-peptide turned out to be 14 nM; with Cynomolgus v6-peptide, 13 nM; with Rabbit v6-peptide, 19 nM; with Human CD44v6 iso4-Fc [2], 1.6 nM. The koff in the assay with Human v6-peptide came to 0.0093 s⁻¹; in the assay with Cynomolgus v6-peptide it was 0.0085 s⁻¹; in the assay with Rabbit v6-peptide it was 0.015 s⁻¹; with Human CD44v6 iso4-Fc [1], 0.00027 s⁻¹. Moreover, the kon stood at 680000 M⁻¹ s⁻¹ in the assay with Human v6-peptide, 680000 M⁻¹ s⁻¹ with Cynomolgus v6-peptide, 830000 M⁻¹ s⁻¹ with Rabbit v6-peptide and 170000 M⁻¹ s⁻¹ with Human CD44v6 iso4-Fc [1].

B6: U-MN114-19 IgG1 LALA (antibody, V domains shown)
VH: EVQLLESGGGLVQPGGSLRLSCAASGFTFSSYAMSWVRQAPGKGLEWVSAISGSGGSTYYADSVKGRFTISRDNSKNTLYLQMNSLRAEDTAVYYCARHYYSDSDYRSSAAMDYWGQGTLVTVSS
VL: DIQMTQSPSSLSASVGDRVTITCRASQSISSYLNWYQQKPGKAPKLLIYAASSLQSGVPSRFSGSGSGTDFTLTISSLQPEDFATYYCQQDLYLLTFGQGTKLEIK
notes: item 20 xxi) gives heavy 149 / light 150 without naming the format; also called parental clone U-MN114-19
As for B6, in the assay with Human CD44 iso6-Fc, the binding result is reported as “no binding (tested: 10 nM highest CD44 concentration)”. In addition, the Kd with Human v6-peptide was found to be 58 nM; with Cynomolgus v6-peptide, 44 nM; with Rabbit v6-peptide it was 79 nM; in the assay with Human CD44v6 iso4-Fc [2], 1.2 nM. The koff with Human v6-peptide stood at 0.049 s⁻¹; with Cynomolgus v6-peptide, 0.046 s⁻¹; in the assay with Rabbit v6-peptide it was 0.15 s⁻¹; in the assay with Human CD44v6 iso4-Fc [1], 0.00015 s⁻¹. Moreover, the kon stood at 830000 M⁻¹ s⁻¹ in the assay with Human v6-peptide, 1e+06 M⁻¹ s⁻¹ in the assay with Cynomolgus v6-peptide, 2e+06 M⁻¹ s⁻¹ in the assay with Rabbit v6-peptide and 130000 M⁻¹ s⁻¹ with Human CD44v6 iso4-Fc [1].

B7: AL-MN114-71 IgG1 LALA IAHA (antibody, V domains shown)
VH: EVQLLESGGGLVQPGGSLRLSCAASGFSFRSFAMSWVRQAPGKGLEWVSAISGGGSSTFYADSVKGRFTISRDNSKNTLYLQMNSLRAEDTAVYYCARHYYSDSDYRSSAAMDYWGQGTLVTVSS
VL: DIQMTQSPSSLSASVGDRVTITCRASQSISSYLNWYQQKPGKAPKLLIYAASTLQSGVPSRFSGSGSGTDFTLTISSLQPEDFATYYCQQDLYLLTFGQGTKLEIK
notes: Human IgG1 LALA IAHA, kappa
Take B7: the binding result with Human CD44 iso6-Fc is “no binding (tested: 10 nM highest CD44 concentration)”. Further, the Kd with Human v6-peptide worked out at 17 nM; in the assay with Cynomolgus v6-peptide, 13 nM; in the assay with Rabbit v6-peptide, 22 nM; with Human CD44v6 iso4-Fc [2], 1.1 nM. Also, the koff with Human v6-peptide worked out at 0.011 s⁻¹; with Cynomolgus v6-peptide, 0.0095 s⁻¹; in the assay with Rabbit v6-peptide, 0.016 s⁻¹; with Human CD44v6 iso4-Fc [1] it was 0.00026 s⁻¹. The kon was determined as 620000 M⁻¹ s⁻¹ in the assay with Human v6-peptide, 710000 M⁻¹ s⁻¹ with Cynomolgus v6-peptide, 710000 M⁻¹ s⁻¹ in the assay with Rabbit v6-peptide and 230000 M⁻¹ s⁻¹ with Human CD44v6 iso4-Fc [1].
